Data on 2 molecules can be found in patent US20070081998A1 (published 2007).

Assay [1] has as its target biotinylated ADDL (bADDL) (UniProt P05067 672-713, N-terminal biotin). Put plainly: cell-based or functional assay.
Assay [2] deals with T1, biotin-Aβ1-20 (UniProt P05067 672-691, not fully specified; biotin (site not stated)).
T1 construct: domain: Aβ1-20; BIACORE antigen standing for monomeric Aβ peptide; also called biotinylated-Aβ1-20
T1 peptide (looked up): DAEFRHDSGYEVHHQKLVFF
Put plainly: BIACORE.

In assay [3] the target is T2, Aβ-derived diffusible ligands (ADDLs) (UniProt P05067 672-713).
T2 construct: domain: Aβ1-42; Soluble oligomers of Aβ1-42
Put plainly: ELISA; reference is binding of the same antibody to Aβ40 monomer. On the procedure:
Affinity maturation was carried out to improve affinity and improve preferential binding to ADDL. To evaluate ADDL binding affinity of the humanized antibodies, BIACORE™ and titration ELISAs were conducted as disclosed herein. Briefly, Streptavidin-coated, 96-well microtiter plates (Sigma, St. Louis, Mo.) were coated with 10% biotinylated ADDL antigen (1 μM). A series of 2-fold dilutions of purified antibody, starting at 500 ng/mL was added to the ADDL captured plates and the plates were incubated for 2 hours at 25° C. […] A rabbit anti-goat IgG (H+L) HRP-conjugated (Bethyl Laboratories, Inc., Montgomery, Tex.) detection antibody was then added at a 1/2000 dilution in blocking solution and incubated for 1 hour at room temperature. After washing with PBS, HRP substrate, 3,3′,5′5-tetramethylbenzidine (ready-to-use TMB; Sigma, St. Louis, Mo.) was added and the reaction was stopped after 10 minutes with 0.5 N H₂SO₄. Absorbance at wavelength of 450 nm was read in a plate reader (model VICTOR V; Perkin Elmer, Boston, Mass.) and data were processed using EXCEL® work sheet.
In general terms: ELISA stands for enzyme-linked immunosorbent assay.

B1: Hu20C2A3 (veneered version of clone A3, IgG2m4 isotype) (antibody, V domains shown)
VH: QVTLKESGPGLLKPTQTLTLTCTLSGFSLSTSGMGVGWFRQPPGKGLEWLAHIWWDDDKSYNPSLKSRLTISKDTSKNQVVLTITNVDPVDTATYYCARRQLGTRGTDAMDYWGQGTTVTVSS
VL: DVVMTQTPLSLPVTPGQPASISCRSSQSILHSNGNTYLEWYLQKPGQSPQLLIYKVSNRFSGVPDRFSGSGSGTDFTLKISRVEAEDVGVYYCLQTTRVPLTFGQGTKLEIKR
notes: to be checked against the listing; also called Hu20C2A3 produced in CHO; Hu20C2A3 produced in Pichia
With B1, the “inhibition of bADDL binding to primary hippocampal neurons (alkaline phosphatase-streptavidin luminescence)” value in assay [1] was 0.16 antibody to peptide ratio. The binding result in assay [2] was “binds”. Also, the “fold preference for ADDL binding versus Aβ40 monomer binding” value in assay [3] stood at 6 fold.

B2: clone A3 humanized by veneering, full IgG1 molecule (antibody, V domains shown)
VH: B1 VH
VL: DVVMTQTPLSLPVTPGQPASISCRSSQSILHSNGNTYLEWYLQKPGQSPQLLIYKVSNRFSGVPDRFSGSGSGTDFTLKISRVEAEDVGVYYCLQTTRVPLTFGQGTKLEIK
notes: also called Hu20C2A3 IgG1/kappa version
As to B2, the binding result in assay [2] is on record as “binds”.
